B1: skeletal muscle β1a subunit, GFP-tagged (pcDNA3-β1a-GFP) (natural protein)
chain: not shown
B2: β1a subunit with the substitution M293A, GFP-tagged (pcDNA3-β1aM293A-GFP) (natural protein)
chain: not shown

Key:
Assay in all cases: FRAP
[1] = molecular target: CaV1.1 α1S with deletion of amino acids 344–346 (pc-α1Sdel3(Δ344–346)) (UniProt P07293 1-1873, Δ344–346)
[2] = molecular target: CaV1.1 α1S with deletion of amino acid 344 (pc-α1Sdel1(Δ344)) (UniProt P07293 1-1873, Δ344)
[3] = molecular target: CaV1.2 α1C subunit, untagged (pβA-α1C) (UniProt P22002-5 1-2142)
[4] = molecular target: CaV1.1 α1S with deletion of amino acids 344–345 (pc-α1Sdel2(Δ344–345)) (UniProt P07293 1-1873, Δ344–345)
[5] = molecular target: CaV1.1 α1S subunit, untagged (pc-α1S) (UniProt P07293 1-1873)

| Binder | R75 (fractional fluorescence recovery 75 s after bleaching) [1] [%] | R75 (fractional fluorescence recovery 75 s after bleaching) [2] [%] | R75 (fractional fluorescence recovery 75 s after bleaching) [3] [%] | R75 (fractional fluorescence recovery 75 s after bleaching) [4] [%] | R75 (fractional fluorescence recovery 75 s after bleaching) [5] [%] |
| --- | --- | --- | --- | --- | --- |
| B1 | 22.8 | 20.9 | 23.6 | 19.9 | – |
| B2 | – | – | – | – | 45.2 |
